Legend:
[1] = molecular target: MtTT8 (Medicago truncatula)
[2] = molecular target: MtWD40-1 (Medicago truncatula)

Chain of MtTT8 (Medicago truncatula) (main, as listed by the source): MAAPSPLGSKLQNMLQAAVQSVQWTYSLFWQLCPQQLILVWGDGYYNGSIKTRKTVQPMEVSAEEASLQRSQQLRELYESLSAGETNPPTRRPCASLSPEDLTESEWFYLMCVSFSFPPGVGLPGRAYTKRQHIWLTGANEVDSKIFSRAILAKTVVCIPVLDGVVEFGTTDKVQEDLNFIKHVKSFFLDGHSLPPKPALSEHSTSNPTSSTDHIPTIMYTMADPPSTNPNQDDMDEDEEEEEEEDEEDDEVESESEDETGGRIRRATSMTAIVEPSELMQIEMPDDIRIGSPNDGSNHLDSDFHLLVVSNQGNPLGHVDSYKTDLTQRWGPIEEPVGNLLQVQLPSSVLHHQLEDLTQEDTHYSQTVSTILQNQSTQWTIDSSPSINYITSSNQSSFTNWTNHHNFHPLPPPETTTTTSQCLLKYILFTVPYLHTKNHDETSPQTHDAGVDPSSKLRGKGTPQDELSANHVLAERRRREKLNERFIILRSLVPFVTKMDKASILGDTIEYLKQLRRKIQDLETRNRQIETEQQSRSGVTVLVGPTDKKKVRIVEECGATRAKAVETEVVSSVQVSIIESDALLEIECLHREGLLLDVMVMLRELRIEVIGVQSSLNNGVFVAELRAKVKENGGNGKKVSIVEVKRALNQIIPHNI

ANR promoter::luciferase reporter activity in Arabidopsis leaves co-bombarded with 35S-driven MtPAR, MtTT8 and MtWD40-1 effectors, against empty vector controls [1]: 9 fold
ANR promoter::luciferase reporter activity in Arabidopsis leaves co-bombarded with 35S-driven MtPAR, MtTT8 and MtWD40-1 effectors, against empty vector controls [2]: 9 fold
Substance: Medicago PROANTHOCYANIDIN REGULATOR (MtPAR) (natural protein)

Source: article PMC5066740
